We go through three molecules from patent US20250179215A1, “PLASMIN-BINDING VHHS” (RHEINISCHE FRIEDRICH-WILHELMS-UNIVERSITÄT BONN, priority 2022, published 2025).

Experiment [1] deals with T1, plasmin (Homo sapiens, UniProt P00747).
T1 construct: human Lys-plasmin which is prepared from homogeneous Glu-plasminogen using uPA; purchased Haematologic Technologies, Inc. (Essex Junction, VT)
Put plainly: Michaelis-Menten kinetics of plasmin-mediated cleavage of fluorogenic peptide substrate. Conditions: plasmin 5 nM; VHHs 1 μM, BPTI 3 nM, TXA 7.86 mg/ml; w/o ligand 51.8. In kind it is biochemical. The method, then:
Subsequently, 50 μl of the fluorogenic substrate (3.16-3,160 μM final concentration in assay buffer) was added. Substrate hydrolysis rates were monitored by kinetic measurements using the Synergy 2 microplate reader. Apparent Michaelis-Menten constants (Km) and the turn-over number (kcat) values for substrate hydrolysis were calculated from best fit values of the Michaelis-Menten equation and the catalytic efficiencies were expressed as ratios of kcat/Km.
CI, confidence interval. ^a The turnover number (kcat) was calculated using Vmax values extracted from Michaelis-Menten least squares fit.

The test system of experiment [2] is citrate-anticoagulated whole blood. Put plainly: Rotational thrombelastometry clot lysis in tPA-spiked whole blood. In kind it is biochemical. As to conditions: tPA-spiked whole blood. An excerpt: To further test the fibrinolysis-activating properties of VHHs in an ex-vivo model of hyperfibrinolysis, a whole blood based assay can be used whereat citrate-anticoagulated whole blood in the presence of VHHs is spiked with tPA and clot formation and the fibrinolysis rate of the formed clot monitored by thrombelastometry after initiation of clotting by addition of CaCl2) solution containing recombinant TF.
FIG. 4. Influence of VHHs on endogenous fibrinolysis. (A) Citrate-anticoagulated whole blood was mixed with VHHs A11 or C5 and with tPA to achieve a final concentration of 0.5 μg/ml and clot formation was induced by addition of CaCl2) (0.2 M). (B) Lysis index at 60 min(C) Maximum lysis rates, and (D) lysis onset time were recorded. Mean values and SD were calculated out of three measurements.
(§1) The impact of VHHs on the fibrinolytic activity in plasma and whole blood was monitored using rotational thrombelastometry using the ROTEM delta system (TEM Innovations Ltd., Munich, Germany). […] After addition of 0.1 μg/ml tPA, coagulation was initiated by addition of recombinant tissue factor (Dade Innovin, Siemens Healthcare, Marburg, Germany) dissolved 1:100 in calcium chloride (0.2 M). The viscoelasticity of the formed clot was measured in terms of key parameters including clotting time, maximal clot firmness, maximum clot elasticity, maximum lysis, lysis index after 60 minutes, and lysis onset time.

For experiment [3], the system named is citrate-anticoagulated pooled normal human plasma. Put plainly: Rotational thrombelastometry clot formation parameters in plasma. It counts as biochemical. Conditions: VHHs or BPTI 2.4 μM, TXA 2.4 μg/ml; tPA 0.1 μg/ml. The method, then: FIG. 10. The impact of VHHs on the clot formation parameters in plasma monitored by rotational thrombelastometry. […] After addition of tPA to reach a final concentration of 0.1 μg/ml, coagulation was initiated by addition of recombinant tissue factor (Dade® Innovin®) dissolved 1:100 in calcium chloride solution (0.2 M). The viscoelasticity of the formed clot was measured in terms of (A) clotting time, (B) maximum clot firmness, and (C) maximum clot elasticity. A non-binder VHH (GFP-enhancer VHH) was used as negative control. Mean values and SD were calculated out of three measurements.
as §1

The target in another experiment is T2, plasminogen (Homo sapiens, UniProt P00747).
T2 construct: Plasma derived human Glu-plasminogen; purchased Haematologic Technologies, Inc. (plasminogen); Boehringer Ingelheim (tPA)
The experiment is described as follows: Plasmin generation assay (tPA-mediated plasminogen activation, purified system). In kind it is biochemical. Conditions: at the assessed / higher concentrations. The method, then:
In order to assess the influence of VHHs on tPA-mediated plasminogen activation, plasminogen was preincubated with increasing concentrations of VHHs. After addition of tPA, plasmin generation was measured over time using a fluorogenic plasmin peptide substrate.
FIG. 5. Influence of VHHs on tPA-mediated plasminogen activation. […] After addition of tPA (10 nM final concentration) plasmin generation was measured over time using the fluorogenic plasmin assay. The data are presented as mean±SD of three independent measurements.
Plasminogen (50 nM) was incubated with VHHs (2 μM to 0.2 μM) for 30 min at 37° C. in assay buffer. Subsequently, 20 μl of 50 nM tPA was added to the mixture and incubated at 37° C. After 3 hours of incubation at 37° C., 50 μl of the mixture were transferred to the wells of black F16 Fluoronunc modules and after addition of 50 μl of the plasmin-specific fluorogenic substrate (800 μM) fluorescence intensities were measured at λex of 360 nm and λem of 460 nm using the Synergy 2 microplate reader.

Experiment [4] addresses T1, plasmin. The experiment is described as follows: Activated factor V-inactivation assay (prothrombinase assay). It counts as biochemical. The method, then:
FIG. 6. (A) Influence of VHHs on plasmin-mediated FVa cleavage. Plasmin (1.5 nM) was incubated with increasing concentrations of VHHs for 30 min at 37° C. After addition of FVa (30 pM) and further incubation for 30 min, FXa (0.52 pM), prothrombin (10 nM) and a fluorogenic thrombin substrate (100 μM) were added and the FVa-dependent thrombin generation was measured. The FVa inactivation rate measured in the absence of VHHs or plasmin inhibitors was set as 100%. […] The data are presented as mean±SD of two independent measurements.
Plasmin-mediated inactivation of activated factor V (FVa) was measured using a prothrombinase assay as recently described (Hamedani 2020). Briefly, 1.5 nM plasmin in assay buffer (20 mM Tris-HCl, 137 mM NaCl, 10 mg/ml phospholipids, 5 mM CaCl2, 1 mg/ml BSA, pH 7.4) was preincubated with VHHs (0.1 nM-10 μM final concentrations) for 30 min at 37° C. Then, 60 μl of the mixture were mixed with 60 μl of […] FVa. After further incubation for 30 min, 25 μl of the reaction mixture were mixed with 50 μl of 1.3 μM human FXa and 100 μM fluorogenic thrombin substrate (Boc-Asp(OBzl)-Pro-Arg-AMC) and 50 μl of 10 nM human prothrombin. Thrombin catalyzed substrate hydrolysis was monitored at λex of 360 nm and λem of 460 nm using the Synergy 2 microplate reader.

In experiment [5] the target is T1, plasmin. Put plainly: Stability of plasmin (autocatalytic degradation) in activation buffer. In kind it is biochemical. Conditions: 100 mM TXA or lysine in buffer.
Experiment [6] has as its target T3, human plasmin (human, UniProt P00747 97-580; P00747 581-810). Put plainly: cell-based or functional assay.
Experiment [7] has as its target T3, human plasmin. Put plainly: cell-based or functional assay. The source holds these as a separate data set.
The target of experiment [8] is T3, human plasmin. The experiment is described as follows: BLI (BLItz), His-tagged VHH on anti-HIS biosensor.
A further experiment deals with T4, human plasminogen (human, UniProt P00747 20-810).
T4 construct: mature; Purchased plasma-derived Glu-plasminogen or in-house plasma-purified plasminogen; also called human PLG; plasma derived human Glu-plasminogen
The experiment is described as follows: BLI (BLItz), His-tagged VHH on anti-HIS biosensor.

The next experiment concerns the target T5, mouse plasminogen (mouse, UniProt P20918 20-812).
T5 construct: mature; also called mouse Glu-plasminogen
Put plainly: BLI (BLItz), His-tagged VHH on anti-HIS biosensor.

The target of the next experiment is T6, mouse plasmin (mouse, UniProt P20918 98-581; P20918 582-812).
T6 construct: domain: heavy chain or A-chain;domain: light chain that contains the serine protease domain; Purchased from Haematologic Technologies
Put plainly: BLI (BLItz), His-tagged VHH on anti-HIS biosensor.

The target of experiment [9] is T7, tissue plasminogen activator (recombinant tPA, Actilyse) (UniProt P00750 36-562).
T7 construct: Actilyse is recombinant human tPA (alteplase)
The experiment is described as follows: BLI (BLItz), His-tagged VHH on anti-HIS biosensor.

Experiment [10] has as its target T3, human plasmin. The experiment is described as follows: competition ELISA: A11 coated on the plate (10 µg/ml), plasmin 10 nM with free A11 (self-competition); bound plasmin read by hydrolysis of a fluorogenic substrate. Here is the method: (§2) FIG. 2. VHHs competition ELISA. […] Data represent the mean±SD of two measurements.
(§3) To assess the competition of VHHs for similar or overlapping binding sites on the plasmin molecule, a competition ELISA was performed. Microtiter (96-well) plates were coated with VHHs (10 μg/ml in coating buffer, 100 μl/well) at 2-8° C. overnight. Wells were washed and non-specific protein-binding sites were blocked with 20 mg/ml bovine serum albumine (BSA) for 2 h at RT. After removing the blocking buffer, wells were overlaid with a reaction mixture containing plasmin (10 nM) and VHHs (0.316 nM-31.6 μM) in buffer (20 mM HEPES, 154 mM NaCl, BSA 1 mg/ml, pH 7.4) for 30 min at RT. After washing the amount of bound plasmin was quantified through hydrolysis rates of the fluorogenic plasmin substrate (300 μM, 100 μl/well). The fluorescence intensity measured in the absence of free VHHs was set as 100%.

For experiment [11], the target named is T3, human plasmin. Put plainly: competition ELISA: C5 coated on the plate (10 µg/ml), plasmin 10 nM with free A11 as competitor of immobilized C5; bound plasmin read by hydrolysis of a fluorogenic substrate. The method, then:
as §2, §3

Experiment [12] has as its target T3, human plasmin. Put plainly: competition ELISA: C5 coated on the plate (10 µg/ml), plasmin 10 nM with free C5 (self-competition); bound plasmin read by hydrolysis of a fluorogenic substrate. The method, then: as §2, §3
The target in experiment [13] is T3, human plasmin. Put plainly: competition ELISA: A11 coated on the plate (10 µg/ml), plasmin 10 nM with free C5 as competitor of immobilized A11; bound plasmin read by hydrolysis of a fluorogenic substrate. Here is the method: as §2, §3

Bounds are passed on as bounds.

T1 sequence (P00747 97-580 limits assumed): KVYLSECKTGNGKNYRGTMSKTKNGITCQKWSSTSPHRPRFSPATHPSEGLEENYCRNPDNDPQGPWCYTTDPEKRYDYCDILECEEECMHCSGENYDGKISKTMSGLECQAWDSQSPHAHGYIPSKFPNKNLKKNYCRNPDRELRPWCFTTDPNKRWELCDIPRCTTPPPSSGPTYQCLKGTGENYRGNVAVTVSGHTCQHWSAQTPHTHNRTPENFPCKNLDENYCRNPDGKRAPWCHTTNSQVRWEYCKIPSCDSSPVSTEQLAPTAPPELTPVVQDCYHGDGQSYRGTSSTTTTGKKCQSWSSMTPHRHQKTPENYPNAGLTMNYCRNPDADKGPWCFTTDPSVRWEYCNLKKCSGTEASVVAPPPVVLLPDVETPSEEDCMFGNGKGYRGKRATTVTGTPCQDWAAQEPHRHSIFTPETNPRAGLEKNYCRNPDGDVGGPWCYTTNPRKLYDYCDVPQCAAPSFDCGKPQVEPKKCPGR
T1 sequence (P00747 581-810 limits assumed): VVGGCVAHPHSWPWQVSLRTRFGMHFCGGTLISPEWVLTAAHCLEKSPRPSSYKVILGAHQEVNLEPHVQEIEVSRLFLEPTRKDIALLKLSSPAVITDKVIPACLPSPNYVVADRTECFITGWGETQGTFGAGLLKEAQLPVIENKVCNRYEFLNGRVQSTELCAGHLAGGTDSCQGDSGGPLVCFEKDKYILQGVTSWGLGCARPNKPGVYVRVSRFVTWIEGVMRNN
T3 sequence (P00747 97-580 limits assumed, chain 1 of 2): as the sequence (P00747 97-580 limits assumed) above
T3 sequence (P00747 581-810 limits assumed, chain 2 of 2): as the sequence (P00747 581-810 limits assumed) above
T6 sequence (P20918 98-581 limits assumed, chain 1 of 2): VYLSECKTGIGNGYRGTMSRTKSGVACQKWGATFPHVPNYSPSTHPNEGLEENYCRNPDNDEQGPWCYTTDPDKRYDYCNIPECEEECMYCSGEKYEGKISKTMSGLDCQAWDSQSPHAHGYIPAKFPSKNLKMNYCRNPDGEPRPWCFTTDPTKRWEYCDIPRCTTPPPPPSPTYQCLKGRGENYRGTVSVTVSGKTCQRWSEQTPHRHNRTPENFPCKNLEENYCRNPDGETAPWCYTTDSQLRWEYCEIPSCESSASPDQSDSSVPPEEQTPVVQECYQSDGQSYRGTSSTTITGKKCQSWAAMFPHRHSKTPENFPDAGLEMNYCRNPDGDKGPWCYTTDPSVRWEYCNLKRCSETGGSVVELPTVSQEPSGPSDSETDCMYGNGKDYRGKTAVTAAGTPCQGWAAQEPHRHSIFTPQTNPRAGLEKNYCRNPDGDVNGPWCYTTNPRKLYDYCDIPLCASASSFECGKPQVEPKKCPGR
T6 sequence (P20918 582-812 limits assumed, chain 2 of 2): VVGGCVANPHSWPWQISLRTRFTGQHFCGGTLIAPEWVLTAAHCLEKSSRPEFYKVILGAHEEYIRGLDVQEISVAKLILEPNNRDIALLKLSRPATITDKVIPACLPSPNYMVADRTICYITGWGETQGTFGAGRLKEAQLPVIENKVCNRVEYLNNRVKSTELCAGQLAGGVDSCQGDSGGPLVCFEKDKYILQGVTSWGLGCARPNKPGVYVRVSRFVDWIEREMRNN
T5 sequence (P20918 20-812 limits assumed): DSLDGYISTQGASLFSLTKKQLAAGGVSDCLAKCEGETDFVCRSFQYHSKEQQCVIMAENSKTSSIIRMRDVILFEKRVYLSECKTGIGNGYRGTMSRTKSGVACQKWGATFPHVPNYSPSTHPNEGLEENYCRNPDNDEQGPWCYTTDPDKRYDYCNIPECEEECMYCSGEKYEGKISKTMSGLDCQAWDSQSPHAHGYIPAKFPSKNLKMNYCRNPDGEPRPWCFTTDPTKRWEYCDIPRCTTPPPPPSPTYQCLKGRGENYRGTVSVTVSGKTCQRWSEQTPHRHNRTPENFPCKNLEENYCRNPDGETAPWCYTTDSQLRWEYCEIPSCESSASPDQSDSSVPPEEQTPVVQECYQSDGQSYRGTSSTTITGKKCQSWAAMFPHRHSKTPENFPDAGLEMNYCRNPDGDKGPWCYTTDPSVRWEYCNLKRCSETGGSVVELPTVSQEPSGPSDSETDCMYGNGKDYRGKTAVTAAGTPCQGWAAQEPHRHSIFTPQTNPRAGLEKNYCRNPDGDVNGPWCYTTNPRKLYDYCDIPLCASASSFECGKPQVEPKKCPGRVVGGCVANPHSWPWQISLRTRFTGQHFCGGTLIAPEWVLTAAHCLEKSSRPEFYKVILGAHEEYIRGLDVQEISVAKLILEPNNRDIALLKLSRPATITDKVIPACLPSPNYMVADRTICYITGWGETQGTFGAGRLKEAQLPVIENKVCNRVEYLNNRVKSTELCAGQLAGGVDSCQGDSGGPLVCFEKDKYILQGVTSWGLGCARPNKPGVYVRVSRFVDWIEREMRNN
T7 sequence (P00750 36-562 limits assumed): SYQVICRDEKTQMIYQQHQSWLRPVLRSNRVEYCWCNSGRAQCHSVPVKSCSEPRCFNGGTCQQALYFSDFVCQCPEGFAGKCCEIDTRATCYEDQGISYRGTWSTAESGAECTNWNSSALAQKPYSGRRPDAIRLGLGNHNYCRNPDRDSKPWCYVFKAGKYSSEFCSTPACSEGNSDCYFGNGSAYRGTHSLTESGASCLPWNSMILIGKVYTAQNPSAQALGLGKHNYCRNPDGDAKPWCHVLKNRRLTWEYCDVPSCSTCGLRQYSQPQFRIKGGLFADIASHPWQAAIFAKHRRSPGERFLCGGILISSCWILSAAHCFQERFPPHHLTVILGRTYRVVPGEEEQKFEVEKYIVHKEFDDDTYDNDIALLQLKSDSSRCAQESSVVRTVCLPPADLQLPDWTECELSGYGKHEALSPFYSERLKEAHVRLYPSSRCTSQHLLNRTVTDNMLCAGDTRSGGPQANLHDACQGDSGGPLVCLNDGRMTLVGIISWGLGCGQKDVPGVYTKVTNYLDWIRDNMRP
T4 sequence (P00747 20-810 limits assumed): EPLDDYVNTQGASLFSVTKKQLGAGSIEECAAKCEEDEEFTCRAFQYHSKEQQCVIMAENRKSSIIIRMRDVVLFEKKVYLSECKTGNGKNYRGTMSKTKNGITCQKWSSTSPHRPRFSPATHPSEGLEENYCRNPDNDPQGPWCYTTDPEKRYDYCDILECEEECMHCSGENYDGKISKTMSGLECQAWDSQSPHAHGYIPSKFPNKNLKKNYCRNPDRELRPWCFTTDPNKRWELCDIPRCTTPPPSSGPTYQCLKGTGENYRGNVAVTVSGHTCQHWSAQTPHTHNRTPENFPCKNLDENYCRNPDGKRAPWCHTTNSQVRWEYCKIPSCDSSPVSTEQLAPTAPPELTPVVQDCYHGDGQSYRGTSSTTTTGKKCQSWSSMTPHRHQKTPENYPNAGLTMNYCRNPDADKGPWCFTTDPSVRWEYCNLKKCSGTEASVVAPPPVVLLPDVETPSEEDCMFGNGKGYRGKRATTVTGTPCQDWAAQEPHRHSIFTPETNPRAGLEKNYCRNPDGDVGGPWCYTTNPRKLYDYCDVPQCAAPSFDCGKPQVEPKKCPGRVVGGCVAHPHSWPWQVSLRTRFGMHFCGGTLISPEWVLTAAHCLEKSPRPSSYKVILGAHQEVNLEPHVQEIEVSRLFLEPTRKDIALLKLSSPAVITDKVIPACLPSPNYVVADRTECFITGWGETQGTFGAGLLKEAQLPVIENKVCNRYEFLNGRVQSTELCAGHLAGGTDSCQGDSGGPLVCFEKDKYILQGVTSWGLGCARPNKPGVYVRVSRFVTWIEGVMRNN
T2 sequence (P00747 20-810 limits assumed): as above

For `NC[C@H]1CC[C@H](C(=O)O)CC1` [TXA, tranexamic acid, reference compound], the “kcat × 10^3 (s^−1) mean (95% CI)” value on plasmin [1] is given as 42.1 (40-44) s^−1. Moreover, the “effect on lysis compared to VHHs (FIG. 4C, maximum lysis rates)” value in experiment [2] is reported as “inhibition of lysis”. In [3], the “effect on fibrin clot formation parameters (clotting time, maximum clot firmness, maximum clot elasticity)” value is recorded as “does not affect”. In addition, at plasminogen, the “inhibition of plasmin generation at higher concentrations” value was “plasmin generation is blocked”. The “maximal rate of inhibition of plasmin-mediated cleavage of FVa” value at plasmin [4] (TXA 316 μM or higher) amounted to 48%. For the same molecule, the “FVa cleavage at lower TXA concentrations” value at plasmin [4] (lower TXA concentrations) is “accelerated”. Further, the “protection of plasmin from autocatalytic degradation” value on plasmin [5] is “more effective than lysine”.

B1: VHH A11 including C-terminal His6-tag (VHH)
VHH: QVQLVETGGGLVQAGGSLRLSCAASGNIFSINAMDWYRQAPGKERELVAAITSGGTTNYADSVKGRFTISRDNAKDTVYLQMNSLKPEDAAFYYCNADGYYSDYDKNLAEFNSWGQGTQVTVSS
notes: Alpaca-derived
For the molecule B1, the “increase in plasmin peptide substrate conversion, at molar ratio of VHH over plasmin of 158” value with human plasmin [6] was about 2.5 fold. In the experiment with human plasmin [7], the “Kcat/Km of plasmin-mediated cleavage of fluorogenic peptide substrate, VHH 1 µM” value was found to be 2.28e+08 M⁻¹ s⁻¹. Further, in the experiment with human plasmin [7], the “kcat of plasmin-mediated cleavage of fluorogenic peptide substrate, VHH 1 µM” value was found to be 67200 s⁻¹. In addition, the Kd is 4.7 nM with human plasmin [8]; over 100 nM with human plasminogen; over 1000 nM with mouse plasminogen; 87.3 nM in the experiment with mouse plasmin; 941 nM in [9]. The “IC50 (read off the curve)” value with human plasmin [10] is about 500 nM; with human plasmin [11], about 1000 nM.

B2: VHH C5 including C-terminal His6-tag (VHH)
VHH: QVQLVESGGGLVQAGGSLRLSCAASGRRFMVVAMGWYRQAPGNQRELVASITNGGTTNYAGSVKGRFTISGDSAKNTVYLHMNSLKPEDTAVYYCTTDVVFRDGNGQIQSNWGQGTQVTVSS
notes: Alpaca-derived
As for B2, in the experiment with human plasmin [6], the “increase in plasmin peptide substrate conversion, at molar ratio of VHH over plasmin of 500” value was about 2.5 fold. Besides, in the experiment with human plasmin [7], the “Kcat/Km of plasmin-mediated cleavage of fluorogenic peptide substrate, VHH 1 µM” value worked out at 2.44e+08 M⁻¹ s⁻¹. In the experiment with human plasmin [7], the “kcat of plasmin-mediated cleavage of fluorogenic peptide substrate, VHH 1 µM” value was determined as 69900 s⁻¹. Further, the Kd in the experiment with human plasmin [8] is 6.8 nM; with human plasminogen it was over 100 nM; with mouse plasminogen, over 1000 nM; in the experiment with mouse plasmin it was 172 nM; in [9], 213 nM. Further, the “IC50 (read off the curve)” value with human plasmin [12] was about 2000 nM; with human plasmin [13] it was about 500 nM.
